Experimental data reported in US20040167319A1 (Genmab, published 2004).
Substitutions are numbered along the chain they refer to. Bridges are numbered along the chain shown (N, C = ends). Where no end group is shown, it is not given here. minicard = not defined here

T1: CAHTPYINC (linker 1-9 via 1,3‑bis(bromomethyl)‑benzene (inferred); not fully specified (C-terminus); also: covalently linked to minicard)
T1 construct: 9-mer looped Pepscan peptide derived from human CD20
T1 peptide: CAHTPYINC

T2: PCINIYNAEPANPCE (linker 2-14 via 1,3‑bis(bromomethyl)‑benzene (inferred); reading uncertain)
T2 construct: 15-mer looped Pepscan peptide derived from human CD20, Cys put in at two positions
T2 peptide: Ac-PCINIYNAEPANPCE-minicard

T3: CIRAHTPYC (linker 1-9 via 1,3‑bis(bromomethyl)‑benzene (inferred); not fully specified (C-terminus); also: covalently linked to minicard)
T3 construct: 9-mer looped Pepscan peptide derived from human CD20
T3 peptide: CIRAHTPYC

T4: GIYAPIA (also: covalently linked to polyethylene card)
T4 construct: 7-mer Pepscan peptide derived from human CD20 (A in place of the C of GIYAPIC)
T4 peptide: GIYAPIA

T5: ICNAEPANPSEKNCP (linker 2-14 via 1,3‑bis(bromomethyl)‑benzene (inferred); reading uncertain)
T5 construct: 15-mer looped Pepscan peptide derived from human CD20, Cys put in at two positions
T5 peptide: Ac-ICNAEPANPSEKNCP-minicard

T6: MESLCFIRAHCPYIN (linker 5-11 via 1,3‑bis(bromomethyl)‑benzene (inferred); reading uncertain)
T6 construct: 15-mer looped Pepscan peptide derived from human CD20, Cys put in at two positions
T6 peptide: Ac-MESLCFIRAHCPYIN-minicard

T7: KMECLNFIRAHCPYI (linker 4-12 via 1,3‑bis(bromomethyl)‑benzene (inferred); reading uncertain)
T7 construct: 15-mer looped Pepscan peptide derived from human CD20, Cys put in at two positions
T7 peptide: Ac-KMECLNFIRAHCPYI-minicard

T8: NCYNAEPANPSEKCS (linker 2-14 via 1,3‑bis(bromomethyl)‑benzene (inferred); reading uncertain)
T8 construct: 15-mer looped Pepscan peptide derived from human CD20, Cys put in at two positions
T8 peptide: Ac-NCYNAEPANPSEKCS-minicard

T9: PAGIYAP (also: covalently linked to polyethylene card)
T9 construct: 7-mer Pepscan peptide derived from human CD20
T9 peptide: PAGIYAP

T10: CFIRAHTPC (linker 1-9 via 1,3‑bis(bromomethyl)‑benzene (inferred); not fully specified (C-terminus); also: covalently linked to minicard)
T10 construct: 9-mer looped Pepscan peptide derived from human CD20
T10 peptide: CFIRAHTPC

T11: AGIYAPI (also: covalently linked to polyethylene card)
T11 construct: 7-mer Pepscan peptide derived from human CD20
T11 peptide: AGIYAPI

T12: IYAPIAV (also: covalently linked to polyethylene card)
T12 construct: 7-mer Pepscan peptide derived from human CD20 (A in place of the C of IYAPICV)
T12 peptide: IYAPIAV

T13: KMESCNFIRACTPYI (linker 5-11 via 1,3‑bis(bromomethyl)‑benzene (inferred); reading uncertain)
T13 construct: 15-mer looped Pepscan peptide derived from human CD20, Cys put in at two positions
T13 peptide: Ac-KMESCNFIRACTPYI-minicard

T14: YCAEPANPSEKNSCS (linker 2-14 via 1,3‑bis(bromomethyl)‑benzene (inferred); reading uncertain)
T14 construct: 15-mer looped Pepscan peptide derived from human CD20, Cys put in at two positions
T14 peptide: Ac-YCAEPANPSEKNSCS-minicard

T15: IYAPICV (also: covalently linked to polyethylene card)
T15 construct: 7-mer Pepscan peptide derived from human CD20
T15 peptide: IYAPICV

T16: ACPANPSEKNSPSCQ (linker 2-14 via 1,3‑bis(bromomethyl)‑benzene (inferred); reading uncertain)
T16 construct: 15-mer looped Pepscan peptide derived from human CD20, Cys put in at two positions
T16 peptide: Ac-ACPANPSEKNSPSCQ-minicard

T17: ICIYNAEPANPSECN (linker 2-14 via 1,3‑bis(bromomethyl)‑benzene (inferred); reading uncertain)
T17 construct: 15-mer looped Pepscan peptide derived from human CD20, Cys put in at two positions
T17 peptide: Ac-ICIYNAEPANPSECN-minicard

T18: NCEPANPSEKNSPCT (linker 2-14 via 1,3‑bis(bromomethyl)‑benzene (inferred); reading uncertain)
T18 construct: 15-mer looped Pepscan peptide derived from human CD20, Cys put in at two positions
T18 peptide: Ac-NCEPANPSEKNSPCT-minicard

T19: CRAHTPYIC (linker 1-9 via 1,3‑bis(bromomethyl)‑benzene (inferred); not fully specified (C-terminus); also: covalently linked to minicard)
T19 construct: 9-mer looped Pepscan peptide derived from human CD20
T19 peptide: CRAHTPYIC

T20: LKMECLNFIRCHTPY (linker 5-11 via 1,3‑bis(bromomethyl)‑benzene (inferred); reading uncertain)
T20 construct: 15-mer looped Pepscan peptide derived from human CD20, Cys put in at two positions
T20 peptide: Ac-LKMECLNFIRCHTPY-minicard

T21: GIYAPIC (also: covalently linked to polyethylene card)
T21 construct: 7-mer Pepscan peptide derived from human CD20
T21 peptide: GIYAPIC

T22: IPAGIYA (also: covalently linked to polyethylene card)
T22 construct: 7-mer Pepscan peptide derived from human CD20
T22 peptide: IPAGIYA

T23: ECANPSEKNSPSTCY (linker 2-14 via 1,3‑bis(bromomethyl)‑benzene (inferred); reading uncertain)
T23 construct: 15-mer looped Pepscan peptide derived from human CD20, Cys put in at two positions
T23 peptide: Ac-ECANPSEKNSPSTCY-minicard

B1: 11B8 (antibody, IgG3, V domains shown)
VH: EVQLVQSGGGLVHPGGSLRLSCTGSGFTFSYHAMHWVRQAPGKGLEWVSIIGTGGVTYYADSVKGRFTISRDNVKNSLYLQMNSLRAEDMAVYYCARDYYGAGSFYDGLYGMDVWGQGTTVTVSS
VL: EIVLTQSPATLSLSPGERATLSCRASQSVSSYLAWYQQKPGQAPRLLIYDASNRATGIPARFSGSGSGTDFTLTISSLEPEDFAVYYCQQRSDWPLTFGGGTKVEIK
notes: Human monoclonal IgG3,κ from hybridoma
B2: 7D8 (antibody, IgG1, V domains shown)
VH: EVQLVESGGGLVQPDRSLRLSCAASGFTFHDYAMHWVRQAPGKGLEWVSTISWNSGTIGYADSVKGRFTISRDNAKNSLYLQMNSLRAEDTALYYCAKDIQYGNYYYGMDVWGQGTTVTVSS
VL: B1 VL with D93N, L96I, G100Q, K103R, V104L
notes: Human monoclonal IgG1,κ from hybridoma
B3: 2F2 (antibody, V domains shown)
VH: B2 VH with D15G, H30N, T57S, N77K
VL: B1 VL with D93N, L96I, G100Q, K103R, V104L
modifications: FITC- or 125I-labelled in some assays; F(ab')2 fragments in some; the letters do not carry this
notes: Human monoclonal IgG1,κ from hybridoma; also called 4C9; HuMab 2F2 (hybridoma-derived)

Biological target: T1, CAHTPYINC
Test: Pepscan ELISA, 10 µg/ml
Source text: (§1) In some cases chemical linkage of the legs of a 15-mer peptide helps to identify amino acid sequences of a potentially discontinuous epitope. […] The 9- and 15-mers were synthesized as loops and screened using credit-card format mini-PEPSCAN cards (455 peptide format/card). In all looped peptides amino acids at varied positions were replaced by a cysteine (e.g., acetyl-XCXXXXXXXXCX-minicard). The peptides were synthesized using standard Fmoc-chemistry and deprotected using TFA with scavengers. Subsequently, the deprotected peptides were reacted on the microarray with an 0.5 mM solution of 1,3-bis(bromomethyl)-benzene in ammonium bicarbonate (20 mM, pH 7.9), supplemented with acetonitrile (1:1 (v/v)). The microarrays were gently shaken in the solution for 30-60 min, while completely covered in the solution. Finally, the microarrays were washed extensively with excess of Millipore H₂O and sonicated in disrupt-buffer containing 1% sodium dodecylsulfate, 0.1% β-mercaptoethanol, in PBS (pH 7.2) at 70° C. for 30 min, followed by sonication in millipore H₂O for another 45 min. Subsequently, the microwells were ready for screening in an ELISA-assay.
(§2) […] After washing, the peptides were incubated with anti-human antibody peroxidase (dilution 1:1000, 1 hour, 25° C.), and after washing the peroxidase substrate, 2,2′-azino-di-3-ethylbenzthiazolin sulfonate and 2 μl/ml 3% H₂O₂ were added. After one hour, the color development was measured. The color development of the ELISA was quantified with a CCD-camera and an image processing system.

Binder	OD (absorbance) [OD]
B1	179
B2	174
B3	42

Biological target: T2, PCINIYNAEPANPCE
Test: Pepscan ELISA, 10 µg/ml
Source text: as §1, §2

Binder	OD (absorbance) [OD]
B1	118
B2	163
B3	65

Biological target: T3, CIRAHTPYC
Test: Pepscan ELISA, 10 µg/ml
Source text: as §1, §2

Binder	OD (absorbance) [OD]
B1	151
B2	186
B3	57

Biological target: T4, GIYAPIA
Test: Pepscan ELISA, 10 µg/ml
Source text: as §1, §2

Binder	OD (absorbance) [OD]
B1	172
B2	177
B3	62

Biological target: T5, ICNAEPANPSEKNCP
Test: Pepscan ELISA, 10 µg/ml
Source text: as §1, §2

Binder	OD (absorbance) [OD]
B1	115
B2	165
B3	43

Biological target: T6, MESLCFIRAHCPYIN
Test: Pepscan ELISA, 10 µg/ml
Source text: as §1, §2

Binder	OD (absorbance) [OD]
B1	179
B2	127
B3	41

Biological target: T7, KMECLNFIRAHCPYI
Test: Pepscan ELISA, 10 µg/ml
Source text: as §1, §2

Binder	OD (absorbance) [OD]
B1	763
B2	134
B3	48

Biological target: T8, NCYNAEPANPSEKCS
Test: Pepscan ELISA, 10 µg/ml
Source text: as §1, §2

Binder	OD (absorbance) [OD]
B1	93
B2	121
B3	49

Biological target: T9, PAGIYAP
Test: Pepscan ELISA, 10 µg/ml
Source text: as §1, §2

Binder	OD (absorbance) [OD]
B1	449
B2	170
B3	43

Biological target: T10, CFIRAHTPC
Test: Pepscan ELISA, 10 µg/ml
Source text: as §1, §2

Binder	OD (absorbance) [OD]
B1	188
B2	181
B3	91

Biological target: T11, AGIYAPI
Test: Pepscan ELISA, 10 µg/ml
Source text: as §1, §2

Binder	OD (absorbance) [OD]
B1	251
B2	188
B3	44

Biological target: T12, IYAPIAV
Test: Pepscan ELISA, 10 µg/ml
Source text: as §1, §2

Binder	OD (absorbance) [OD]
B1	161
B2	181
B3	62

Biological target: T13, KMESCNFIRACTPYI
Test: Pepscan ELISA, 10 µg/ml
Source text: as §1, §2

Binder	OD (absorbance) [OD]
B1	625
B2	142
B3	39

Biological target: T14, YCAEPANPSEKNSCS
Test: Pepscan ELISA, 10 µg/ml
Source text: as §1, §2

Binder	OD (absorbance) [OD]
B1	106
B2	188
B3	65

Biological target: T15, IYAPICV
Test: Pepscan ELISA, 10 µg/ml
Source text: as §1, §2

Binder	OD (absorbance) [OD]
B1	137
B2	174
B3	58

Biological target: T16, ACPANPSEKNSPSCQ
Test: Pepscan ELISA, 10 µg/ml
Source text: as §1, §2

Binder	OD (absorbance) [OD]
B1	146
B2	148
B3	77

Biological target: T17, ICIYNAEPANPSECN
Test: Pepscan ELISA, 10 µg/ml
Source text: as §1, §2

Binder	OD (absorbance) [OD]
B1	138
B2	192
B3	78

Biological target: T18, NCEPANPSEKNSPCT
Test: Pepscan ELISA, 10 µg/ml
Source text: as §1, §2

Binder	OD (absorbance) [OD]
B1	159
B2	183
B3	61

Biological target: T19, CRAHTPYIC
Test: Pepscan ELISA, 10 µg/ml
Source text: as §1, §2

Binder	OD (absorbance) [OD]
B1	427
B2	188
B3	48

Biological target: T20, LKMECLNFIRCHTPY
Test: Pepscan ELISA, 10 µg/ml
Source text: as §1, §2

Binder	OD (absorbance) [OD]
B1	165
B2	160
B3	49

Biological target: T21, GIYAPIC
Test: Pepscan ELISA, 10 µg/ml
Source text: as §1, §2

Binder	OD (absorbance) [OD]
B1	99
B2	152
B3	34

Biological target: T22, IPAGIYA
Test: Pepscan ELISA, 10 µg/ml
Source text: as §1, §2

Binder	OD (absorbance) [OD]
B1	217
B2	164
B3	48

Biological target: T23, ECANPSEKNSPSTCY
Test: Pepscan ELISA, 10 µg/ml
Source text: as §1, §2

Binder	OD (absorbance) [OD]
B1	134
B2	179
B3	68
